This note sets out measurements from patent US20230279125A1 (published 2023).

The chains are these.
B1: hIL28RA VHH8 (VHH, not shown: large carriers)
VHH: QVQLQESGGGSVQAGGSLRLSCAVSRYTISRSDCMGWFRQAPGKEREGVARIGSDGTTSYADSVKERFTISKDNAKNILYLQMNSLKPEDTARYYCAATALLLGRGSACHKEVSVFSWWGQGTQVTVSS
notes: Camel VHH tested as periplasmic extract of a phage clone (PE-ELISA); also called anti-human IL28RA VHH
B2: hIL28RA VHH14 (VHH, not shown: large carriers)
VHH: QVQLQESGGGSVQAGGSLRLSCASSGYISRSSYCMGWFRQAPGKEREVAAIVTGDGRTYYGDSVKGRFAISRDNAKNTLYLQMNSLKPEDTAMYYCVAGPPPCITTMPAGGDYGYRYWGRGTQVTVSS
notes: as for B1
B3: hIL28RA VHH4 (VHH, not shown: large carriers)
VHH: QVQLQESGGGSVQLGGSLRLSCLVSGSTDNIKYMGWFRQAPGKEREGVAAVYTSGGAVVYADSVKGRFTISQDDAKNTMYLQMNSLKPEDTAMYYCAASRAPAPPRLLLQRALVEYWGQGTQVTVSS
notes: as for B1
B4: hIL28RA VHH5 (VHH, not shown: large carriers)
VHH: QVQLQESGGGLVQPGGSLRLSCAASGFTFSNATMSWVRQAPGKEIEWVSAISNSRGTKYYAAFVKGRFTISRDNAKNTLYLQLNNLKTEDTAMYYCTKDWKTSYSDYDLSDGQGTQVTVSS
notes: as for B1
B5: hIL28RA VHH13 (VHH, not shown: large carriers)
VHH: B4 VHH with G16S
notes: as for B1
B6: hIL28RA VHH10 (VHH, not shown: large carriers)
VHH: QVQLQESGGGSVQAGGSLRLSCASSGYISSRSTYCMGWFRQAPGKEREVAAVVTGDSRTYYGDSVKGRFAISRDNAKNTLYLQMNSLKPEDTAMYYCAAGPPPCITTMPAGGDYGYRYWGQGTQVTVSS
notes: as for B1
B7: hIL28RA VHH12 (VHH, not shown: large carriers)
VHH: B6 VHH with V52I, K66R, T107S
notes: as for B1
B8: hIL28RA VHH1 (VHH, not shown: large carriers)
VHH: QVQLQESGGGSVQAGGSLRLSCASSGYISSSYCMAWFRQAPGKEREGAAGVTRDGKTYYGDSVKGRFAISRDNAKNTLYLQMNSLKPEDTAMYYCAAGPPPCITSMPAGGDYGYRYWGQGTQVTVSS
notes: as for B1
B9: hIL28RA VHH7 (VHH, not shown: large carriers)
VHH: QVQLQESGGGLVQPGGSLRLSCAASGFTFSNYGMSWVRQAPGKGLEWVSGINSGGDDTFYTDSVKGRFTISRDNAKNTLYLQMNSLKTEDTAMYYCAMGASGMIPRGQGTQVTVSS
notes: as for B1
B10: hIL28RA VHH9 (VHH, not shown: large carriers)
VHH: B9 VHH with A75V
notes: as for B1
B11: hIL28RA VHH2 (VHH, not shown: large carriers)
VHH: B9 VHH with V112I
notes: as for B1
B12: hIL28RA VHH3 (VHH, not shown: large carriers)
VHH: QVQLQESGGGLVQPGGSLRLSCVASGFTFSDYAMSWVRQAPGMGLERVSAIGRDGSTFYPDSVKGRFTISRDNAKNTLYLQLNSLKTEDTAMYYCAKEEPGSSSRGQGTQVTVSS
notes: as for B1
B13: hIL28RA VHH6 (VHH, not shown: large carriers)
VHH: B12 VHH with V23A
notes: as for B1
B14: hIL28RA VHH11 (VHH, not shown: large carriers)
VHH: QVQLQESGGGSVQSGGSLRLSCAASGFTYSSYCMGWFRQAPGKEREGVAAIDSDGSTSYADSVKGRFTISKDNAKNTLYLQMNSLRPEDTAMYYCAADGEYNDYVCWSTGLRYRGQGTQVTVSS
notes: as for B1

Positions count from the first letter of the chain named.

The target in this experiment is T1, extracellular domain of human IL28RA (human, UniProt Q8IU57 21-228).
T1 construct: Plates were 'coated with IL28RA'; also called hIL28RA ECD antigen; hIL28RA
T1 sequence: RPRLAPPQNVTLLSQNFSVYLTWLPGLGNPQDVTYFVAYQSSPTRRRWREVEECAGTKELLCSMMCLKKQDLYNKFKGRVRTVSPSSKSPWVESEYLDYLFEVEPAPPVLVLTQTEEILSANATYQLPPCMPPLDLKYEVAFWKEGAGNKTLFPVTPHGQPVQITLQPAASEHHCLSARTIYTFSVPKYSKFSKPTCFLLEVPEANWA
In words: periplasmic extract ELISA on IL28RA-coated plates, A450 at least threefold over PBS-coated control. The procedure: Upon completion of the biopanning of Example 3, three 96-well plates of individual phage clones were isolated in order to perform periplasmic extract ELISA (PE-ELISA) on IL28RA coated plates to identify positive VHH binders that selectively bound IL28RA . A 96-well plate was coated with IL28RA and PBS under the same conditions. Next, wells were blocked at 37° C. for 1 h. Then, 100 µl of extracted antibodies was added to each well and incubated for 1 h. Subsequently, 100 µl of anti-tag polyclonal antibody conjugated to HRP was added to each well and incubated at 37° C. for 1 h. Plates were developed with TMB substrate. The reaction was stopped by the addition of H2SO4. Absorbance at 450 nm was read on a microtiter plate reader. […] Positive clones were sequenced, and sequences analyzed to identify unique clonotypes
B1: the binding result is recorded as “binds”.

Regarding B2, the binding result is given as “binds”.

For the molecule B3, the binding result is on record as “binds”.

As for B4, the binding result is reported as “binds”.

Take B5: the binding result was “binds”.

On to B6, for which the binding result is “binds”.

In the case of B7, the binding result is “binds”.

Consider B8, for which the binding result is “binds”.

As to B9, the binding result is reported as “binds”.

On to B10, for which the binding result was “binds”.

Consider B11, for which the binding result is recorded as “binds”.

With B12, the binding result was “binds”.

Regarding B13, the binding result is “binds”.

B14: the binding result is on record as “binds”.
